# B1: N142P, Q8GB52 (parent)
# chain: MLKKVLSCCIAATFGIYSASSLAQSSVINSTENSQQPIAPLVLASSDDAITDRYIVVLKQPQMLMNDAAGLQQFTQQTVGLMANSFSIKTDDVFDSSIIGFVANLDALQLKQLRRDSRVEYIEQDQILSIDPVVSNEAVQSNAIWGLDRIDQRNLPLDRNYNANFDGFGVTAYVIDTGVNNNHEEFGGRSVSGYDFVDNDADSSDCNGHGTHVAGTIGGSQYGVAKNVNIVGVRVLSCSGSGTTSGVISGVDWVAQNASGPSVANMSLGGGQSTALDSAVQGAIQSGVSFMLAAGNSNADACNTSPARVPSGVTVGSTTSSDSRSSFSNWGSCVDLFAPGSQIKSAWYDGGYKTISGTSMATPHVAGVAALYLQENNGLTPLQLTGLLNSRASENKVSDTRGTTNKLLYSLADSGCEPDCGGPTPGPDPDGKLVSGVPVNGLSGSRGQKDYFYMDLQQGQQLTVVTIGGTGDADLYLRFGDKPTLNTWDCRPYRSGNSETCTVNVTQSGRYHVMLNAYSAYSGLTLQANF
# Variants of: B1
# Settings: Vibrio sp. PA-44, pH 8.6, Thermal, structure 1SH7, whole UniProt chain shown
# [1] = CD, Glycine 25 mM, NaCl and CaCl2 100 mM and 15 mM
# [2] = DSC, Glycine 25 mM, NaCl and CaCl2 100 mM and 15 mM
# [3] = DSC, glycine, Nacl / Cacl2 100000 / 15000, transition: 2, reversible: no
# [4] = CD, glycine, Nacl / Cacl2 100000 / 15000, transition: 2, reversible: no
variant,measurement,setting,value
MLKKVLSCCIAATFGIYSASSLAQSSVINSTENSQQPIAPLVLASSDDAITDRYIVVLKQPQMLMNDAAGLQQFTQQTVGLMANSFSIKTDDVFDSSIIGFVANLDALQLKQLRRDSRVEYIEQDQILSIDPVVSNEAVQSPAIWGLDRIDQRNLPLDRNYNANFDGFGVTAYVIDTGVNNNHEEFGGRSVSGYDFVDNDADSSDCNGHGTHVAGTIGGSQYGVAKNVNIVGVRVLSCSGSGTTSGVISGVDWVAQNASGPSVANMSLGGGQSTALDSAVQGAIQSGVSFMLAAGNSNADACNTSPARVPSGVTVGSTTSSDSRSSFSNWGSCVDLFAPGSQIKSAWYDGGYKTISGTSMATPHVAGVAALYLQENNGLTPLQLTGLLNSRASENKVSDTRGTTNKLLYSLADSGCEPDCGGPTPGPDPDGKLVSGVPVNGLSGSRGQKDYFYMDLQQGQQLTVVTIGGTGDADLYLRFGDKPTLNTWDCRPYRSGNSETCTVNVTQSGRYHVMLNAYSAYSGLTLQANF [N142P],Tm,[1],64.8 °C
same,"change of melting temperature, mutant - wild type (higher = more stable)",[1],2.9 °C
same,Tm,[2],66.8 °C
same,"change of melting temperature, mutant - wild type (higher = more stable)",[2],2.9 °C
same,unfolding enthalpy (calorimetric),[2],128 kcal/mol
same,Tm,[3],66.8 °C
same,"change of melting temperature, mutant - wild type (higher = more stable)",[3],2.9 °C
same,unfolding enthalpy (calorimetric),[3],127 kcal/mol
MLKKVLSCCIAATFGIYSASSLAQSSVINSTENSQQPIAPLVLASSDDAITDRYIVVLKQPQMLMNDAAGLQQFTQQTVGLMANSFSIKTDDVFDSSIIGFVANLDALQLKQLRRDSRVEYIEQDQILSIDPVVSNEAVQSPAPWGLDRIDQRNLPLDRNYNANFDGFGVTAYVIDTGVNNNHEEFGGRSVSGYDFVDNDADSSDCNGHGTHVAGTIGGSQYGVAKNVNIVGVRVLSCSGSGTTSGVISGVDWVAQNASGPSVANMSLGGGQSTALDSAVQGAIQSGVSFMLAAGNSNADACNTSPARVPSGVTVGSTTSSDSRSSFSNWGSCVDLFAPGSQIKSAWYDGGYKTISGTSMATPHVAGVAALYLQENNGLTPLQLTGLLNSRASENKVSDTRGTTNKLLYSLADSGCEPDCGGPTPGPDPDGKLVSGVPVNGLSGSRGQKDYFYMDLQQGQQLTVVTIGGTGDADLYLRFGDKPTLNTWDCRPYRSGNSETCTVNVTQSGRYHVMLNAYSAYSGLTLQANF [N142P I144P],Tm,[1],67.8 °C
same,"change of melting temperature, mutant - wild type (higher = more stable)",[1],5.9 °C
same,Tm,[4],67.8 °C
same,"change of melting temperature, mutant - wild type (higher = more stable)",[4],5.9 °C
same,Tm,[2],72 °C
same,"change of melting temperature, mutant - wild type (higher = more stable)",[2],8.1 °C
same,unfolding enthalpy (calorimetric),[2],155 kcal/mol
same,Tm,[3],72 °C
same,"change of melting temperature, mutant - wild type (higher = more stable)",[3],8.1 °C
same,unfolding enthalpy (calorimetric),[3],154 kcal/mol

# Source: FireProtDB (doi:10.1038/s41598-020-57873-3)
